In assay [1] the target is methanol dehydrogenase α subunit from Methylococcus capsulatus (Bath) (Methylococcus capsulatus (Bath)). Description: SEC-MALS.
Assay [2] shares this target. Description: SEC. A general note: In gel filtration, larger molecules generally elute earlier.
Assay [3] has as its target methanol dehydrogenase from Methylococcus capsulatus (Bath), α2β2 dimer (Methylococcus capsulatus (Bath)). Kind of assay: BLI.

As for “methanol dehydrogenase α subunit from Methylococcus capsulatus (Bath) (natural protein)”, the stoichiometry N in assay [1] and in assay [2] was 2 throughout. For “spmoB, truncated recombinant periplasmic domains of M. capsulatus (Bath) pMMO subunit pmoB (domain or fragment)”, the Kd (in general, the concentration at which binding is half-saturated) in assay [3] worked out at 9 µM.
